This is an account of results in publication PMC3845532 (Biochemistry, 2013).

Where a chain is given by its changes, count along the chain named. In names and notes the source's numbering stands.

In series [1] the target is C81R mutant PCNA protein from S. cerevisiae (S. cerevisiae) (UniProt P15873). Put plainly: crystal structure.
Series [2] concerns the molecule itself. Nature of the series: native gel or EMSA. Background: A gel shift assay detects complexes by their altered migration in electrophoresis.
Series [3] concerns the target MutSα (Msh2-Msh6) from S. cerevisiae (S. cerevisiae, UniProt P25847 1-964; Q03834 1-1242). Put plainly: ELISA.
Series [4] concerns the molecule itself. Nature of the series: crystal structure.

Chain of MutSα (Msh2-Msh6) from S. cerevisiae (P25847 whole entry, chain 1 of 2): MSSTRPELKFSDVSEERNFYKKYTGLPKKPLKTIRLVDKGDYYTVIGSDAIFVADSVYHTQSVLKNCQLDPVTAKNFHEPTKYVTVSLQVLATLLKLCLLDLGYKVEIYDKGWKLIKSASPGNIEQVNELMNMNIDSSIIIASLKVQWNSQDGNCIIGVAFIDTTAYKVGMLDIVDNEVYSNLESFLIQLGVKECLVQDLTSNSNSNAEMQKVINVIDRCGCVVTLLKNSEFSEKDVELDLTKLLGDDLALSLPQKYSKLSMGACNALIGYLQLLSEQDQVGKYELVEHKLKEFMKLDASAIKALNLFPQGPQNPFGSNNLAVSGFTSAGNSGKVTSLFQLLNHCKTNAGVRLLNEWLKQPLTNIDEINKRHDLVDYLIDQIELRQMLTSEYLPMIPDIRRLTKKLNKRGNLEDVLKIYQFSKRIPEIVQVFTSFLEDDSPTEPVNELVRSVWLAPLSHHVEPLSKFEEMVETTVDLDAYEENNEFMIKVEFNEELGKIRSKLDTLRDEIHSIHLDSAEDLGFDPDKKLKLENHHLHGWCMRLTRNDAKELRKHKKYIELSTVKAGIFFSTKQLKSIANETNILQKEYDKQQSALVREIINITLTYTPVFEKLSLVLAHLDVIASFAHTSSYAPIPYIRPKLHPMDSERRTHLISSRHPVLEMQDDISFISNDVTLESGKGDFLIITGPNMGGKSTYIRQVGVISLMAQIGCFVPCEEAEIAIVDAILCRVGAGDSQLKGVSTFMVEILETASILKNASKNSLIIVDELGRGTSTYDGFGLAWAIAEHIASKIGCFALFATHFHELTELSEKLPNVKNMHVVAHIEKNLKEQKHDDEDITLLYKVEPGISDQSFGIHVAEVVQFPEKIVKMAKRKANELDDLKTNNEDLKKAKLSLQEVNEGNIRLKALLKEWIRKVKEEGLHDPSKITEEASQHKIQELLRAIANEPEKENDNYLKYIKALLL
Chain of MutSα (Msh2-Msh6) from S. cerevisiae (Q03834 whole entry, chain 2 of 2): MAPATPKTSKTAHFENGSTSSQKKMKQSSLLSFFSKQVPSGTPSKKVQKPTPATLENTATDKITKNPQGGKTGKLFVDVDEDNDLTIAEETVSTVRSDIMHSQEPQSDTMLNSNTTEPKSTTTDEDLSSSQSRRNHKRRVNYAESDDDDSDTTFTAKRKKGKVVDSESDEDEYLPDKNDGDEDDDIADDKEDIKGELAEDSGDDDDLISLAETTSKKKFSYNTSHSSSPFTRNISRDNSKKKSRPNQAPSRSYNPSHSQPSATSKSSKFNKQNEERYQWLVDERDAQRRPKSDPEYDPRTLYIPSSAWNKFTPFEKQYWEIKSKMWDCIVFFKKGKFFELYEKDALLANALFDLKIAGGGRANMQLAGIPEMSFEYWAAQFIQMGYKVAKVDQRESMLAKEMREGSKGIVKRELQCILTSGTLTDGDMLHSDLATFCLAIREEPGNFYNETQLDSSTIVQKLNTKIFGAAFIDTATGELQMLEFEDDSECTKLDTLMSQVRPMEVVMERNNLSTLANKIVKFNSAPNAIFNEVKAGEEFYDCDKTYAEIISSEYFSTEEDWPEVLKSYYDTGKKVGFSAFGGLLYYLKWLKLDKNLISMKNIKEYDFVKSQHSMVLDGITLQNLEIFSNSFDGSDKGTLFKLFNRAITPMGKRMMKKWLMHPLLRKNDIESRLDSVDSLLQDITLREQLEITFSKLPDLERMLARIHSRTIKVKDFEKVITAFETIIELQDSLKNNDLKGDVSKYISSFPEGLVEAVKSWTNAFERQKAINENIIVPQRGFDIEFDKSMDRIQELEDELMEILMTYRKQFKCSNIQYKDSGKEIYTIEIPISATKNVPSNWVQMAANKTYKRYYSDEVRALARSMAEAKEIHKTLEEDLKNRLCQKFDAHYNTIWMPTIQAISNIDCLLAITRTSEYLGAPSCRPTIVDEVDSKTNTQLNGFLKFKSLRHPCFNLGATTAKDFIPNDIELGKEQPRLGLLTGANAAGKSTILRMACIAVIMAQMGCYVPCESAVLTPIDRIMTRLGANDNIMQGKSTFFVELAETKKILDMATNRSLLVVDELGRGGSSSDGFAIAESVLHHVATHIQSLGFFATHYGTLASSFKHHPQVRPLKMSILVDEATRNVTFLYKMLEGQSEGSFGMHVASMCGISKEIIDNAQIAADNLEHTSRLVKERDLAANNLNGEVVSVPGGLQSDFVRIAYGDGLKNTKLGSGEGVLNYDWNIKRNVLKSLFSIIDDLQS

For orientation: stoichiometry N means a count of units in the complex or per binding partner. In turn, “C81R mutant PCNA protein from S. cerevisiae (from UniProt P15873 1-258) (natural protein)” gave a stoichiometry N in series [1] of 3.

B1: wild-type PCNA protein (proliferating cell nuclear antigen) from S. cerevisiae (natural protein)
chain: MLEAKFEEASLFKRIIDGFKDCVQLVNFQCKEDGIIAQAVDDSRVLLVSLEIGVEAFQEYRCDHPVTLGMDLTSLSKILRCGNNTDTLTLIADNTPDSIILLFEDTKKDRIAEYSLKLMDIDADFLKIEELQYDSTLSLPSSEFSKIVRDLSQLSDSINIMITKETIKFVADGDIGSGSVIIKPFVDMEHPETSIKLEMDQPVDLTFGAKYLLDIIKGSSLSDRVGIRLSSEAPALFQFDLKSGFLQFFLAPKFNDEE
Take B1: the “stoichiometry N” value in series [2] stood at 3.

B2: C81R mutant PCNA protein from S. cerevisiae (natural protein)
chain: B1 chain with C81R
For B2, the binding result in series [3] is “binds”.

B3: C22Y mutant PCNA protein from S. cerevisiae (natural protein)
chain: B1 chain with C22Y
On to B3, for which the binding result in series [3] is listed as “binds”. In addition, the “stoichiometry N” value in series [4] was 3.
